Measurements taken from publication PMC3401449 (Nucleic Acids Research, 2012).

Target: T1, His-tagged, wild-type DNA polymerase IV (Pol IV) (Escherichia coli, UniProt Q47155 1-351)
T1 sequence (looked up): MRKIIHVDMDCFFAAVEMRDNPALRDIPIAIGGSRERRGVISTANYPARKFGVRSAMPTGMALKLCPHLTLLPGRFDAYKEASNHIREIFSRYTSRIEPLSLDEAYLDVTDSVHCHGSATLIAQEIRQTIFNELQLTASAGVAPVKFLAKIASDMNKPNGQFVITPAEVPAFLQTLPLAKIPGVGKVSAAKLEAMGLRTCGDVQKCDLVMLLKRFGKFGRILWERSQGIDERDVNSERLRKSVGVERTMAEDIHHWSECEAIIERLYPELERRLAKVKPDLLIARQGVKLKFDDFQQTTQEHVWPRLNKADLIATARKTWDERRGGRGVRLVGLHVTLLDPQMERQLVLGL
Test: pull-down

WMDFDDDIPF [SSB-Ct peptide (Trp–Met–Asp–Phe–Asp–Asp–Asp–Ile–Pro–Phe)]
binding result: binds
